Source: article PMC9728385

What was measured:
TtCST Ctc1 F264A/Y268A = TtCST Ctc1 F264A/Y268A (Tetrahymena, UniProt A0PGB2;Q6JXI5;D2CVN7;D2CVN8 1-622;1-373;1-164;1-422, F264A;Y268A); test: EMSA
[1] = molecular target: TtCST Ctc1 R395E/Y445A/F473A (Tetrahymena, UniProt A0PGB2;Q6JXI5;D2CVN7;D2CVN8 1-622;1-373;1-164;1-422, R395E;Y445A;F473A); test: EMSA
Sequence of TtCST Ctc1 R395E/Y445A/F473A (A0PGB2 whole entry R395E/Y445A/F473A, chain 1 of 4): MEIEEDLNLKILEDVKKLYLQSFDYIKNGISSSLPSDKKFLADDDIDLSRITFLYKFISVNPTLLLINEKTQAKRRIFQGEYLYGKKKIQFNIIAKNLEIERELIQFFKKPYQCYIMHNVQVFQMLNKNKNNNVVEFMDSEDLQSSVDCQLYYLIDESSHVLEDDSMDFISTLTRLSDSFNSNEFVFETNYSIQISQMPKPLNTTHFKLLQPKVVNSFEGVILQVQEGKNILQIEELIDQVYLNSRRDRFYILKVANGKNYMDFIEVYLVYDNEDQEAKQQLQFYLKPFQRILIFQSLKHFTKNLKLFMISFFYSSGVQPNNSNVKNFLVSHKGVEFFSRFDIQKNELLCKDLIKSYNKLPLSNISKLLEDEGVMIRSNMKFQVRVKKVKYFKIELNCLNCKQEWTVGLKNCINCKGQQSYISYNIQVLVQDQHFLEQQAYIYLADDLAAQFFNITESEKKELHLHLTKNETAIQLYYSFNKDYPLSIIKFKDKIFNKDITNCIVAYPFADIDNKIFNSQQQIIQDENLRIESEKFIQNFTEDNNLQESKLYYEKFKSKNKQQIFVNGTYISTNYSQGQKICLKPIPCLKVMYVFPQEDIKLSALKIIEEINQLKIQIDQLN
Sequence of TtCST Ctc1 R395E/Y445A/F473A (Q6JXI5 whole entry, chain 2 of 4): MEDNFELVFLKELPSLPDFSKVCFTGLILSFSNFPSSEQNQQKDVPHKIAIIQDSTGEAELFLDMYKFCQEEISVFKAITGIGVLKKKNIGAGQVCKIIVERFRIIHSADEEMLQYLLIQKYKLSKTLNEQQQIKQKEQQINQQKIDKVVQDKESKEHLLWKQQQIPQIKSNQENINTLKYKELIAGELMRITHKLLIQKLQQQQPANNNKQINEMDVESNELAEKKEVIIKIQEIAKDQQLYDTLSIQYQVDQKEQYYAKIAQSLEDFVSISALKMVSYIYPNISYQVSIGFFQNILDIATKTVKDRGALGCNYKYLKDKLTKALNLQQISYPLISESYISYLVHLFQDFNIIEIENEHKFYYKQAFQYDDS
Sequence of TtCST Ctc1 R395E/Y445A/F473A (D2CVN7 whole entry, chain 3 of 4): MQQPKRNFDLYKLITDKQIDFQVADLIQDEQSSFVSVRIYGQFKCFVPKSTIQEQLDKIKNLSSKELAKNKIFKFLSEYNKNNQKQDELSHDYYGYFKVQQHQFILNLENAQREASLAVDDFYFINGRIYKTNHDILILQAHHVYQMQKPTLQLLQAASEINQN
Sequence of TtCST Ctc1 R395E/Y445A/F473A (D2CVN8 whole entry, chain 4 of 4): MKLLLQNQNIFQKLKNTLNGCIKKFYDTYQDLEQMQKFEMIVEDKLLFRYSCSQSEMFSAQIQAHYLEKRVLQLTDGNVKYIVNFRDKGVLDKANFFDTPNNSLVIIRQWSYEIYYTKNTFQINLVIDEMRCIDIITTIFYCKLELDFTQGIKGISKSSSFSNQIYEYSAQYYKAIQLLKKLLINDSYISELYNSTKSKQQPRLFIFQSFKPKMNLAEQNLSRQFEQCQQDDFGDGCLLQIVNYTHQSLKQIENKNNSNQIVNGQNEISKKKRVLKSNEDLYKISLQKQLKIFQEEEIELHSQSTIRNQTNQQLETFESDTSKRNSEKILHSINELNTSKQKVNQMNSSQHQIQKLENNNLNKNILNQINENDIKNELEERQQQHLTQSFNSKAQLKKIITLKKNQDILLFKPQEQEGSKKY

Sequence of TtCST Ctc1 F264A/Y268A (A0PGB2 whole entry F264A/Y268A, chain 1 of 4): as the sequence (A0PGB2 whole entry R395E/Y445A/F473A, chain 1 of 4) above, with F264A, Y268A, E395R, A445Y, A473F counted along it
Sequence of TtCST Ctc1 F264A/Y268A (Q6JXI5 whole entry, chain 2 of 4): as the sequence (Q6JXI5 whole entry, chain 2 of 4) above
Sequence of TtCST Ctc1 F264A/Y268A (D2CVN7 whole entry, chain 3 of 4): as the sequence (D2CVN7 whole entry, chain 3 of 4) above
Sequence of TtCST Ctc1 F264A/Y268A (D2CVN8 whole entry, chain 4 of 4): as the sequence (D2CVN8 whole entry, chain 4 of 4) above

GTTGGGGTTGGGGTTGGGGTTGGGGTTGGG (ssDNA) [d(GTTGGG)5]
binding signal (TtCST Ctc1 F264A/Y268A): 1.2 fold weaker Kd than WT
Kd [1]: 520 nM
